Experimental data taken from paper PMC6005519, “Reconstitution and functional studies of hamster P-glycoprotein in giant liposomes” (PLoS ONE, 2018).

Tested on: T1, Nc1ncnc2c1ncn2[C@@H]1O[C@H](COP(=O)(O)OP(=O)(O)OP(=O)(O)O)[C@@H](O)[C@H]1O
T1 construct: Purified Pgp extracted from Chinese Hamster Ovary B30 cells, reconstituted in giant liposomes
Assay: Km of ATP from Rho123 transport rates in giant proteoliposomes; colorimetric ATPase assay
Format: biochemical, Cricetulus griseus

Chain of P-glycoprotein (Pgp, ABCB1) (Cricetulus griseus) (chain, as listed by the source): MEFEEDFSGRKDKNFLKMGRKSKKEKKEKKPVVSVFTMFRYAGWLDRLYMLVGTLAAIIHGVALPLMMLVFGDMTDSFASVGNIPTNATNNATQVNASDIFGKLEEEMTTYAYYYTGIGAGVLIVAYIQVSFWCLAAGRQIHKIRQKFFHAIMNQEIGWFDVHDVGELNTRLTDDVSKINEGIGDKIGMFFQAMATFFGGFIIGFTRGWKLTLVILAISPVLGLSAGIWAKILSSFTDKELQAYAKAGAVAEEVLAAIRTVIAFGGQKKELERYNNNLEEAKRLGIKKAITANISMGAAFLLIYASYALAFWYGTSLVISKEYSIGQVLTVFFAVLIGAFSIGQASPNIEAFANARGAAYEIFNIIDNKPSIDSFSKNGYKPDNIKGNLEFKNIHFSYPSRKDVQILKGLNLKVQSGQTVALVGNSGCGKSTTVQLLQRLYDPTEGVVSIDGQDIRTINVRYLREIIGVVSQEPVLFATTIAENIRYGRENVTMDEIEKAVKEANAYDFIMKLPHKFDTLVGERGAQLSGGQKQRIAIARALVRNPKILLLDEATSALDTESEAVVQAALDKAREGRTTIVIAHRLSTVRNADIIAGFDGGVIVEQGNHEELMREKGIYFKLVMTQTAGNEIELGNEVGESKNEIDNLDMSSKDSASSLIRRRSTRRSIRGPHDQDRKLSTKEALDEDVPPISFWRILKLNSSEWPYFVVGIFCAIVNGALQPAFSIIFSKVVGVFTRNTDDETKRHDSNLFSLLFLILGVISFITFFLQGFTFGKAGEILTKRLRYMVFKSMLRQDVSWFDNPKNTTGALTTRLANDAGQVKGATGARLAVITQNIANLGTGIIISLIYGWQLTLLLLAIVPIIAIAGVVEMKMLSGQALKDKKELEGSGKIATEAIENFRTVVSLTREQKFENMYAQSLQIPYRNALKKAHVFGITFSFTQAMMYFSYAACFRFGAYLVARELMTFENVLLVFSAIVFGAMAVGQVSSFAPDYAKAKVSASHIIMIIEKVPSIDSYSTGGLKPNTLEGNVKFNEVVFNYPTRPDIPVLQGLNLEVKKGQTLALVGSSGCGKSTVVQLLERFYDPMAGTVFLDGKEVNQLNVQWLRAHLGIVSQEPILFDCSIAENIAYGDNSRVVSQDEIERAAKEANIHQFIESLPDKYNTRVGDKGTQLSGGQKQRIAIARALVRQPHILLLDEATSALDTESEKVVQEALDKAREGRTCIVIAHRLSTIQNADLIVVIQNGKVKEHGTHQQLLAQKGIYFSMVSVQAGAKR

Substance: P-glycoprotein (Pgp, ABCB1) (Cricetulus griseus)
- Km: 0.42 ± 0.75 mM
